T1: Zur (Paracoccus denitrificans) (UniProt A1B9K9)
T1 sequence: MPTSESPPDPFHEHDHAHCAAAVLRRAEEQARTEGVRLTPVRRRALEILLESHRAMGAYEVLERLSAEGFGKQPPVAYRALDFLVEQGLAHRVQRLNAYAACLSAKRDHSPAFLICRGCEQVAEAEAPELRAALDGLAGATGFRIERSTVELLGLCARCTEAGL

T2: Zur (Paracoccus denitrificans, UniProt A1B9K9 1-164)
T2 sequence: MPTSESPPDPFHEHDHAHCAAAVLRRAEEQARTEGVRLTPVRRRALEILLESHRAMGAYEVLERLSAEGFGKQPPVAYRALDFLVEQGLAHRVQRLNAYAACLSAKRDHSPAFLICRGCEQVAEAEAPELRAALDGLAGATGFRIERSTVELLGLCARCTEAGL


What was measured:
[1] = molecular target: T1, Zur (Paracoccus denitrificans); test: EMSA; settings: EMSA: 10 mM Tris pH 8.0, 10 mM NaCl, 100 mM K-glutamate, 50 mM KCl, 1 mM DTT, 1.07 ug/ml BSA, 0.1 uM DNA, 0-20 uM Zur, 25 uM ZnCl2, 100 uM EDTA; 30 min room …
[2] = molecular target: Paracoccus denitrificans zinc uptake regulator (Zur) (Paracoccus denitrificans PD1222); test: SEC; Factor Xa cleavage reaction mixture applied to a Hi-Prep Sephacryl S-100 HR column, 20 mM Tris pH 8.0, 150 mM NaCl, calibrated with proteins of 6.5 to 75 kDa
Zur = molecular target: T2, Zur; test: competition; probe zur/znuA 0.1 uM; 10 uM Zur, 25 uM Zn2+, 100 uM EDTA; 5 uM competitor; shift disrupted, not fully displaced; EMSA: 10 mM Tris pH 8.0, 10 mM NaCl, 100 mM K-glutamate, 50 mM KCl, 1 mM DTT, 1.07 ug/ml BSA, 0.1 uM DNA, 0-20 uM Zur, 25 uM ZnCl2, 100 uM EDTA; 30 min room temperature; 8% native PAGE at 4 C; settings: protein: recombinant; tags: MBP (pMAL-c5X) removed by Factor Xa; chain copies: 2; blunt

Molecule | binding [1] | other results
CGGCAAGGACAAGGGAAGAAGGTCGGATCATGGCGAGACTCACTTGCGGAAACGCCAAGGTTATTTATGTTATATCGTAACCCGTCAAGCAAAAATGTAACGATATAACATCATGCCCACTTCGGAATCCCCGCCTGACCCGTTTCACG (double strand) [zur/znuA promoter (149 bp)] | binds | 
AATCACAAAACCGGCGCCTCGGCATTTCCCCGCTGATGCTTTGCCCTCTCGCCGCGGGTCCTGCGGCTTTTCGGACGACCGGCGCGGCATGGCTTGCCGTTCCGGTTTAGTAATGTAATAACATCACCAAAATATCGAGTCCGCTATCCAGTGATGCCCAGAACC (double strand) [aztA promoter] | binds | 
Paracoccus denitrificans zinc uptake regulator (Zur) (natural protein) |  | stoichiometry N [2]: 2
AAGAGAGGGTTGAGCCTGCCCGGTAAAGGGCCGGGCGGGATGATCCGCCAGGCGCATGGGCGAAGCCCTCTTGCATCCCCGGGTGGGTAATATAATAACATAACAAAATCTCCGAGGATAACGCTCATGCTCTGCAAACTGCTCGCTT (double strand) [pden1341 promoter] | binds | 
GCCGCCCGCTGACCAGATTTCCGCCGGGACCAGCCTGCGCCCGTCCCGGCGCCCTCCCCCGAACCCCATCAAGGAGACTTTCCATGCTCAGACATCTCGCGGGCGCCAGCGCCCTTGCCCTGACCTT (double strand) [aztD promoter (negative control, 128 bp)] | binds more weakly | 
specific competitor (zur/znuA), 59 bp (dsDNA) DNA 1: GGGCATGATGTTATATCGTTACATTTTTGCTTGACGGGTTACGATATAACATAAATAAC DNA 2: GTTATTTATGTTATATCGTAACCCGTCAAGCAAAAATGTAACGATATAACATCATGCCC |  | binding result (Zur): binds
